Experimental findings from publication PMC6234840 (Nature, 2018) are described below.

For the experiment, the target named is GST-eIF3h (human, UniProt O15372 1-352). As to the kind of experiment: pull-down.
GST-eIF3h, sequence (O15372 whole entry): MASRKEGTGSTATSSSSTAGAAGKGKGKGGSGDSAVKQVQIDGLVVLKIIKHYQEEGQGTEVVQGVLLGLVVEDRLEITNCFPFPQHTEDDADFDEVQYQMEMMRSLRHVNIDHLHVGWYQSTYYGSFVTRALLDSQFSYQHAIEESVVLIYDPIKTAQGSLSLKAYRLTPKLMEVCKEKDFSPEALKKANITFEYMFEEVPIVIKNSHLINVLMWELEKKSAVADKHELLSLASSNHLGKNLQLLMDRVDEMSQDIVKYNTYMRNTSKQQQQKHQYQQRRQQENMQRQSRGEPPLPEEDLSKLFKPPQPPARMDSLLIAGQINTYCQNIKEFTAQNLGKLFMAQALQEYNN

B1: His-METTL3 1-200 amino acid fragment (domain or fragment)
chain: MSDTWSSIQAHKKQLDSLRERLQRRRKQDSGHLDLRNPEAALSPTFRSDSPVPTAPTSGGPKPSTASAVPELATDPELEKKLLHHLSDLALTLPTDAVSICLAISTPDAPATQDGVESLLQKFAAQELIEVKRGLLQDDAHPTLVTYADHSKLSAMMGAVAEKKGPGEVAGTVTGQKRRAEQDSTTVAAFASSLVSGLNS
On to B1, for which the binding result was “binds”.
